Experimental data as given in article doi:10.1101/2024.01.29.577855.

Target: recombinant yeast TBC-DEG (TBCD, TBCE, Arl2) (yeast) (UniProt P40987)
Experiment: SEC

Sequence of recombinant yeast TBC-DEG (TBCD, TBCE, Arl2) (yeast) (P40987 whole entry, chain 1 of 3): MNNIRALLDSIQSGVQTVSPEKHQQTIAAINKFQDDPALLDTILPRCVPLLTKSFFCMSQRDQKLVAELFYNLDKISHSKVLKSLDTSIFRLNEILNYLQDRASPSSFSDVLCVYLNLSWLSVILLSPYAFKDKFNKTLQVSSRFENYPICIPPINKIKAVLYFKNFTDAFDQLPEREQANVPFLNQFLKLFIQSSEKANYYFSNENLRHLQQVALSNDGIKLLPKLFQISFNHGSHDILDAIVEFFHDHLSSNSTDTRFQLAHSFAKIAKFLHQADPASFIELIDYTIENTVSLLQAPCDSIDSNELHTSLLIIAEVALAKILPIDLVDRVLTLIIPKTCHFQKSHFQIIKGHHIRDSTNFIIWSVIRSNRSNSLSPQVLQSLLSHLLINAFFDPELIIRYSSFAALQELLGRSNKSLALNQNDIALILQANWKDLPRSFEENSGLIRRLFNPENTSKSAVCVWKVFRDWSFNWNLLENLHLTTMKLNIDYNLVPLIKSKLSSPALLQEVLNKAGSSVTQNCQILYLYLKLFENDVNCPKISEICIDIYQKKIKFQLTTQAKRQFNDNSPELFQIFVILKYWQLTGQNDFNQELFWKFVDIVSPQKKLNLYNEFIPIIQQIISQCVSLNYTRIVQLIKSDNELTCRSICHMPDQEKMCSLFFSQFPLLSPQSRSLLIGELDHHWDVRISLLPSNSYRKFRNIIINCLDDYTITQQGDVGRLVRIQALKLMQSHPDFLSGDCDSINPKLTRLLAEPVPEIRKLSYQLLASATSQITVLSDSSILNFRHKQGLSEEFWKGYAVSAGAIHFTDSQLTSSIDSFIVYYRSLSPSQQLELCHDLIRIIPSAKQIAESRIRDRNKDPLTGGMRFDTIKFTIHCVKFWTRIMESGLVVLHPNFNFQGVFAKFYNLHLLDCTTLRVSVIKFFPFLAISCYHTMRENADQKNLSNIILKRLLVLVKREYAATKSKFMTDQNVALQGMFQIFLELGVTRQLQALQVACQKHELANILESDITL
Sequence of recombinant yeast TBC-DEG (TBCD, TBCE, Arl2) (yeast) (P39937 whole entry, chain 2 of 3, further chain): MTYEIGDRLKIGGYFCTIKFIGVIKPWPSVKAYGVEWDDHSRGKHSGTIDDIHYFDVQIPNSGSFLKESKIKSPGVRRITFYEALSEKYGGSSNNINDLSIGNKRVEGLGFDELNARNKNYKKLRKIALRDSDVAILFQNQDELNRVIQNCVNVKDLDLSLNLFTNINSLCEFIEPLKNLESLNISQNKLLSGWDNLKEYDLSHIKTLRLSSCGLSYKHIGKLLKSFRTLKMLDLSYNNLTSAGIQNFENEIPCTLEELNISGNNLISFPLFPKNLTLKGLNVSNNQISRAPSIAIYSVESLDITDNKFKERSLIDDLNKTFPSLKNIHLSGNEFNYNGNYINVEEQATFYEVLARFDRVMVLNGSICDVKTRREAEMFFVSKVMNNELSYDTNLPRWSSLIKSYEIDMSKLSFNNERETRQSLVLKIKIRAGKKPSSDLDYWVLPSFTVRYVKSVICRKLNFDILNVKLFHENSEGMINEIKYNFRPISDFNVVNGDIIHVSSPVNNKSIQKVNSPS
Sequence of recombinant yeast TBC-DEG (TBCD, TBCE, Arl2) (yeast) (P39110 whole entry, chain 3 of 3, further chain): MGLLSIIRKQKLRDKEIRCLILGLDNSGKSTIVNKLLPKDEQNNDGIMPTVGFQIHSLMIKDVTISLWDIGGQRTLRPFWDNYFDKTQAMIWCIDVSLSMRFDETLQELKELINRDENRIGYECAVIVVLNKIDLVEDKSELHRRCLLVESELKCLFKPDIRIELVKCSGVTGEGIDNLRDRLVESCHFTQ

stoichiometry N: 1
Substance: porcine brain αβ-tubulin heterodimer (from UniProt P02550 1-451; P02554 1-445) (complex)
